Reference: PMC11091976, “Shorter Peptide Nucleic Acid Probes Improve Affibody-Mediated Peptide Nucleic Acid-Based Pretargeting” (ACS Pharmacology & Translational Science, 2024)

Legend:
[1] = system: HER2-expressing cell lines pretreated with Z-HP9; assay: In vitro pretargeting specificity of secondary probes; type: cell-based, human; conditions: Z-HP9 1 nM, labeled secondary probe 10 nM, 1 h 37 °C; n = 3
Experimental: Figure 4 In vitro binding specificity of primary agents, (A) [^177Lu]Lu-Z-HP9 and (B) [^177Lu]Lu-Z-HP12 on SKOV-3 and BT-474 cell lines. […] In the second and third groups, cells were incubated with a large amount of unlabeled anti-HER2 ZHER2:342 affibody molecule and unlabeled secondary agent before the addition of radiolabeled secondary agent, respectively. A radiolabeled secondary agent was added directly to cells in the fourth group without adding a primary agent. The data are presented as an average value from three samples ±SD.
Figure 4C,D further elucidates the specificity of PNA-mediated pretargeting on HER2-expressing cell lines when cells were pretreated with a primary agent. […] These findings collectively affirm the success of the in vitro pretargeting approach.
Thereafter, ^177Lu-secondary probe (10 nM) was added, and cells were incubated for 1 h at 37 °C. After that, cells were treated as mentioned above. […] Then, a radiolabeled secondary probe (10 nM) was added and incubated for 1 h at 37 °C. Further treatment was the same as pretargeting group. […] Further treatment was the same as mentioned above. To evaluate unspecific binding, the radiolabeled secondary probe (10 nM) was added to the cells without any pretreatment with the primary agent and incubated for 1 h at 37 °C. After incubation, the cells were washed and treated as mentioned above.

SKOV-3 cells = assay: Cellular processing and retention (acid wash), SKOV-3; type: cell-based, human; conditions: SKOV-3 pretreated with 1 nM nonlabeled Z-HP9; labeled secondary probe 10 nM; n = 3
Experimental: (§1) After a 24 h incubation period, the total cell-associated bound activity was recorded as 72.0 ± 1.7 and 65.2 ± 1.8% for [^177Lu]Lu-Z-HP9, and 74.5 ± 0.2 and 55.6 ± 2.4% for [^177Lu]Lu-Z-HP12 on SKOV-3 and BT-474 cells, respectively. The internalized fractions were quantified as 9.7 ± 1.1 and 10.4 ± 0.6% for [^177Lu]Lu-Z-HP9 and [^177Lu]Lu-Z-HP12 after 24 h of incubation. The pattern was similar for both HER2-expressing cell lines, with slow internalization, which is typical for affibody molecules.
(§2) Figure 5 Cellular processing and retention of [^177Lu]Lu-Z-HP9 (A,B), [^177Lu]Lu-Z-HP12 (C,D), [^177Lu]Lu-HP16 (E,F), and [^177Lu]Lu-HP20 (G, H) on SKOV-3 (A,C,E,G) and BT-474 (B,D,F,H) cells after interrupted incubation with labeled compounds. […] The data are presented as an average value from three samples ±SD.
(§3) The pattern of internalization of the labeled secondary probes by cancer cells, which were pretreated with primary probes, was similar to the pattern for primary agents. […]
(§4) A validated acid-wash method[53] was used for cellular processing and retention of radiolabeled probes by SKOV-3 and BT-474 using interrupted incubation procedure. […] The radioactivity in each fraction was measured using an automated gamma spectrometer. The radioactivity of acidic and alkaline fractions was considered as membrane and internalized parts, respectively. […]

BT-474 cells = assay: Cellular processing and retention (acid wash), BT-474; type: cell-based, human; conditions: BT-474 pretreated with 1 nM nonlabeled Z-HP9; labeled secondary probe 10 nM; n = 3
Experimental: as §1, §2, §3, §4

in vivo = assay: in vivo; design: species or system BALB/C nu/nu mice; conditions: female, BALB/C nu/nu, mouse, total radioactivity
Text: Animal studies were planned in agreement with EU Directive 2010/63/EU for animal experiments and Swedish national legislation concerning the protection of laboratory animals and were approved by the Ethics Committee for Animal Research in Uppsala, Sweden (animal permission C4/16). HER2-positive xenografts were implanted by subcutaneous injection of 10^7 SKOV-3 cells in the right hind legs of female BALB/C nu/nu mice. Three weeks after implantation, mice were randomized into 8 groups, with 4 mice in each group. At the time of the experiment, the average animal weight was 20 ± 1 g. The average tumor weight was 0.26 ± 0.14 g. The mice were euthanized at predetermined time points by overdose of Ketamine/Xylazine anesthesia, followed by heart puncture. The organs of interest such as blood, lung, liver, spleen, kidney, muscle, bone, and tumor were collected, weighed, and subsequently their radioactivity was measured. Organs and tumor uptake were calculated as the percentage of the injected dose per gram of the sample (%ID/g).
To evaluate in vivo specificity, 2 groups of mice were injected with [^177Lu]Lu-HP16 and [^177Lu]Lu-HP20 without preinjection of the primary agent. At 4 h postinjection, the mice were euthanized and treated as mentioned above.
Table S2. Comparative biodistribution of [177Lu]Lu-HP16 and [177Lu]Lu-HP20 in BALB/C nu/nu mice bearing SKOV3
xenografts at 4 h post-injection without pre-injection of a primary agent. Data are presented as an average of %ID/g ± SD, n
*Significant (p<0.05) difference; **The gastrointestinal (GI) and carcass data are expressed as %ID per whole sample.

Row | Compound | binding to Z-HP9 pretreated cells relative to other treated groups [1] [fold] | total cell-associated bound activity after 24 h (SKOV-3 cells) [%] | total cell-associated bound activity after 24 h (BT-474 cells) [%] | tissue uptake at 4 h (in vivo; Blood) [%ID/g] | tissue uptake at 4 h (in vivo; Bone) [%ID/g] | tissue uptake dose at 4 h (in vivo; Carcass) [%ID] | tissue uptake dose at 4 h (in vivo; GI) [%ID] | tissue uptake at 4 h (in vivo; Kidney) [%ID/g] | tissue uptake at 4 h (in vivo; Liver) [%ID/g] | tissue uptake at 4 h (in vivo; Lung) [%ID/g] | tissue uptake at 4 h (in vivo; Muscle) [%ID/g] | tissue uptake at 4 h (in vivo; Spleen) [%ID/g] | tissue uptake at 4 h (in vivo; Tumour) [%ID/g]
1 | NC(=O)[C@H](Cc1ccc(O)cc1)NC(=O)[C@H](CCC(=O)O)NC(=O)[C@H](CCC(=O)O)NC(=O)CN(CCNC(=O)CN(CCNC(=O)CN(CCNC(=O)CN(CCNC(=O)CN(CCNC(=O)CN(CCNC(=O)CN(CCNC(=O)CN(CCNC(=O)CN(CCNC(=O)[C@H](CO)NC(=O)[C@H](CO)NC(=O)COCCOCCNC(=O)CN1CCN(CC(=O)O)CCN(CC(=O)O)CCN(CC(=O)O)CC1)C(=O)Cn1cnc2c(N)ncnc21)C(=O)Cn1cnc2c(N)ncnc21)C(=O)Cn1ccc(N)nc1=O)C(=O)Cn1cnc2c(N)ncnc21)C(=O)Cn1ccc(N)nc1=O)C(=O)Cn1ccc(N)nc1=O)C(=O)Cn1cnc2c(N)ncnc21)C(=O)Cn1cnc2c(=O)[nH]c(N)nc21)C(=O)Cn1cnc2c(=O)[nH]c(N)nc21 [[^177Lu]Lu-HP16, metal not drawn] | 11 | 55.0 ± 1.0 | 26.1 ± 1.2 | 0.02 ± 0.02 | 0.04 ± 0.01 | 1.49 ± 0.42 | 0.61 ± 0.16 | 4.41 ± 0.61 | 0.13 ± 0.01 | 0.1 ± 0.03 | 0.05 ± 0.02 | 0.08 ± 0.01 | 0.09 ± 0.01
2 | NC(=O)[C@H](Cc1ccc(O)cc1)NC(=O)[C@H](CCC(=O)O)NC(=O)[C@H](CCC(=O)O)NC(=O)CN(CCNC(=O)CN(CCNC(=O)CN(CCNC(=O)CN(CCNC(=O)CN(CCNC(=O)CN(CCNC(=O)CN(CCNC(=O)CN(CCNC(=O)[C@H](CO)NC(=O)[C@H](CO)NC(=O)COCCOCCNC(=O)CN1CCN(CC(=O)O)CCN(CC(=O)O)CCN(CC(=O)O)CC1)C(=O)Cn1cnc2c(N)ncnc21)C(=O)Cn1ccc(N)nc1=O)C(=O)Cn1cnc2c(N)ncnc21)C(=O)Cn1ccc(N)nc1=O)C(=O)Cn1ccc(N)nc1=O)C(=O)Cn1cnc2c(N)ncnc21)C(=O)Cn1cnc2c(=O)[nH]c(N)nc21)C(=O)Cn1cnc2c(=O)[nH]c(N)nc21 [[^177Lu]Lu-HP20, metal not drawn] | 11 | 52.8 ± 0.4 | 42.2 ± 2.0 | 0.01 ± 0.004 | 0.03 ± 0.02 | 1.1 ± 0.34 | 1.25 ± 1.06 | 4.86 ± 0.85 | 0.15 ± 0.01 | 0.07 ± 0.01 | 0.02 ± 0.01 | 0.07 ± 0.01 | 0.11 ± 0.03
